Results reported in the supplement of paper PMC9233669.
Variants at the floor of the assay were thinned out.

Key:
[1] = test system: biotinyl-Phe-oxazolone; assay: self-aminoacylation, catalytic enhancement (BFO) (fold over background); higher = more active; k-Seq, kA / k0A0; sequences stand for … in GGGAAUGGAUCCACAUCUACGAAUUC…UUCACUGCAGACUUGACGAAGCUG
Method in brief: (§1)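 Each biotinyl-aminoacyl-oxazolone, at 2–1250 μM, was incubated with mutagenized RNA pools (0.43 μM) carrying a 21-nt variable region. The 50 μL reactions contained HEPES/NaCl/KCl/MgCl2/CaCl2 buffer with 5% acetonitrile at pH 6.9–7.0 and ran for 90 minutes at room temperature. After streptavidin capture, RNA was measured by qPCR in triplicate and by Illumina sequencing, and catalytic enhancement was calculated as median kA over the uncatalyzed rate from a pseudo-first-order fit of per-sequence fraction reacted.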

[2] = test system: biotinyl-Ile-oxazolone; assay: self-aminoacylation, catalytic enhancement (BIO) (fold over background); higher = more active; k-Seq, kA / k0A0; sequences stand for … in GGGAAUGGAUCCACAUCUACGAAUUC…UUCACUGCAGACUUGACGAAGCUG
Method in brief: as §1

[3] = test system: biotinyl-Met-oxazolone; assay: self-aminoacylation, catalytic enhancement (BMO) (fold over background); higher = more active; k-Seq, kA / k0A0; sequences stand for … in GGGAAUGGAUCCACAUCUACGAAUUC…UUCACUGCAGACUUGACGAAGCUG
Method in brief: as §1

[4] = test system: biotinyl-Trp-oxazolone; assay: self-aminoacylation, catalytic enhancement (BWO) (fold over background); higher = more active; k-Seq, kA / k0A0; sequences stand for … in GGGAAUGGAUCCACAUCUACGAAUUC…UUCACUGCAGACUUGACGAAGCUG
Method in brief: as §1

[5] = test system: biotinyl-Leu-oxazolone; assay: self-aminoacylation, catalytic enhancement (BLO) (fold over background); higher = more active; k-Seq, kA / k0A0; sequences stand for … in GGGAAUGGAUCCACAUCUACGAAUUC…UUCACUGCAGACUUGACGAAGCUG
Method in brief: as §1

[6] = test system: biotinyl-Val-oxazolone; assay: self-aminoacylation, catalytic enhancement (BVO) (fold over background); higher = more active; k-Seq, kA / k0A0; sequences stand for … in GGGAAUGGAUCCACAUCUACGAAUUC…UUCACUGCAGACUUGACGAAGCUG
Method in brief: as §1

| Sequence | self-aminoacylation [1] | self-aminoacylation [2] | self-aminoacylation [3] | self-aminoacylation [4] | self-aminoacylation [5] | self-aminoacylation [6] |
| --- | --- | --- | --- | --- | --- | --- |
| AUUGCCCUGGUCAUCGAGUCA [Fam2.1 aminoacylation ribozyme variant] | 0.963 | 0.957 | 0.817 | 0.652 | 0.777 | 0.894 |
| AUUCACCUCGCUCAUCGGGUG [Fam2.2 aminoacylation ribozyme variant] | 13.5 | 2.57 | 3.42 | 3.01 | 3.61 | 2.74 |
| GUACUUCAAACAAUCGGUUUG [Fam1A.1 aminoacylation ribozyme variant] | 40.2 | 1.85 | 1.66 | 27.8 | 1.89 | 1.59 |
| AUUACCCGGGUCAUCGAGUGC [Fam2.1 aminoacylation ribozyme variant] | 5.14 | 1.46 | 1.21 | 1.13 | 1.72 | 1.39 |
| AUUCACCUUGGGCAUCGGGUG [Fam2.2 aminoacylation ribozyme variant] | 22.9 | 3.58 | 3.99 | 5.41 | 4.33 | 3.69 |
| AUUACCCCGGUCACCGAGUGA [Fam2.1 aminoacylation ribozyme variant] | 95.8 | 5.59 | 12.7 | 12.3 | 13 | 4.77 |
| AAGUUCGCUAAUAGUUGCAAG [Fam3.1 aminoacylation ribozyme variant] | 1.71 | 1.52 | 1.47 | 1.12 | 1.33 | 1.22 |
| AUUACCCUCGUCAUCGAGUGC [Fam2.1 aminoacylation ribozyme variant] | 1.29 | 0.96 | 0.914 | 0.477 | 1.17 | 0.864 |
| GCACAGUUCAAGCAAUCGGUC [Fam1B.1 aminoacylation ribozyme variant] | 4.42 | 2.44 | 1.98 | 4.48 | 2.04 | 2.07 |
| AUUACCCUGGUGAUCUAGUGA [Fam2.1 aminoacylation ribozyme variant] | 45.1 | 3.11 | 7.61 | 8.61 | 6.59 | 3.29 |
| CCACAUGUCAAGCAAUCGGUC [Fam1B.1 aminoacylation ribozyme variant] | 1.08 | 1.22 | 1.13 | 0.915 | 1.27 | 1.33 |
| AUUCACCUAUCUCAUCGGGUG [Fam2.2 aminoacylation ribozyme variant] | 19.4 | 2.18 | 3.1 | 3.46 | 4.13 | 2.09 |
| AUUACCCUGGUGACCGAGUGA [Fam2.1 aminoacylation ribozyme variant] | 66.1 | 4.29 | 9.44 | 12.5 | 11.1 | 4.93 |
| AAGAUUGCUAAUCGUCGCAAG [Fam3.1 aminoacylation ribozyme variant] | 1.34 | 2.12 | 1.57 | 2.1 | 1.2 | 1.52 |
| ACACACUUCAAGCAAUCGGUA [Fam1B.1 aminoacylation ribozyme variant] | 2 | 1.73 | 1.66 | 2.19 | 1.84 | 1.55 |
| AUUACCUUGGUCAUCUAGUGA [Fam2.1 aminoacylation ribozyme variant] | 47.8 | 4.49 | 9.34 | 11.2 | 8.77 | 4.72 |
| AUGAUCCUGGUCAUCGAGUGA [Fam2.1 aminoacylation ribozyme variant] | 14 | 4.83 | 9.84 | 9.32 | 9.67 | 4.44 |
| AUUCACCUAGGUUAUGGGGUG [Fam2.2 aminoacylation ribozyme variant] | 78.4 | 5.44 | 8.25 | 8.28 | 11.2 | 4.76 |
| AUUCACCUAGCCCAUCGGGUG [Fam2.2 aminoacylation ribozyme variant] | 13.6 | 2 | 2.92 | 3.11 | 3.35 | 2.58 |
| CUACAUCAAACAAACGGUCUG [Fam1A.1 aminoacylation ribozyme variant] | 1.01 | 1.07 | 1 | 1.09 | 0.771 | 0.901 |
| AAGUUUGCGAGUAGUCGCAAG [Fam3.1 aminoacylation ribozyme variant] | 1.71 | 1.12 | 0.918 | 1.32 | 1.22 | 0.882 |
| AUUACCCUUGUCAGCGAGUGA [Fam2.1 aminoacylation ribozyme variant] | 28.6 | 2.94 | 5.08 | 6.54 | 6.14 | 3.3 |
| AAGUUUGGUAAUAGUCGCAUG [Fam3.1 aminoacylation ribozyme variant] | 2.43 | 1.51 | 1.31 | 1.58 | 1.31 | 1.62 |
